The experiment deals with wild-type SARS-CoV 3CL protease (mature enzyme), as used for analytical ultracentrifugation (SARS-CoV). Description: AUC.

As usually defined, the Kd is the equilibrium constant for the complex coming apart. “wild-type SARS-CoV 3CL protease (mature enzyme), as used for analytical ultracentrifugation”: the Kd was 0.35 nM.

The values above are taken from publication PMC8062786.
